Several values for one entry are separate records, joined by “and”; a condition that tells them apart may be missing. Equal entries are not always repeated.
Biological target: streptavidin (on Sera-Mag magnetic microparticles) (UniProt P22629)
Assay: magnetic bead pull-down, FAM fluorescence of eluted aptamer
Conditions: 1X PBS, or 2 M NaCl, or 2 M CDHP with 1X PBS; 90 min at room temperature; elution in 250 mM NaCl, 500 mM Tris-HCl pH 8.5

Sequence of streptavidin (on Sera-Mag magnetic microparticles) (P22629 25-183): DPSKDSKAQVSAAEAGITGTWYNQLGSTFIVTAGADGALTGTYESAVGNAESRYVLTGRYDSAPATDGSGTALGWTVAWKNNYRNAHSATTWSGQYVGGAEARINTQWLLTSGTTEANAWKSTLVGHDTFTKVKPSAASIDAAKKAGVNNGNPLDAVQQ

ATTGACCGCTGTGTGACGCAACACTCAAT [St-21-1 aptamer]
Kd: 0.0945 µM and 0.0754 µM and 0.07 µM

Reference: article PMC10783497
